# Data taken from the DeepSol protein solubility set.
# Experiment: soluble on expression in E. coli; label from the status in PepcDB or PDB records
row,Sequence,soluble on expression in E. coli
1,GKRLGIFTHDNPDPDSMSSAYALREIAKQFDVIADILYYGEILHQKNRAMVNLLEIPMIRAPEVDLSHYDAFAIVDSSGPGVNNSIPPDIDISIVIDHHPAEKVVAEFVDLREDVGATATILTEYIKELKITPSKILATALFFGIKSETDEFKRNTRTADFLACAFLYPFVDQDLIEKIESPSI,not soluble
2,MSLLTLAFNPQPRAKTYCSGPILRVSGVWAVKILYIVLDGAADSPTSPRKTLEEASKPNIDSLGSHAVCGMVYTVKPGVAPQSDYATLSLLGYNPDEYYPGRGPLEAFGAGIEMRRGDIALRANFATVDPGTLRIIDRRVGRSLTSREARELASAVDGMELEDGEGTALFRATIGHRGVLVLRHRSKPLSDAISNTDPAYERRGRFSVALEKYEPFIKLSNPLVEDEAAVLAARMLNEFTLKAVEILDSHPVNLAREKRGLLKANAILSRDAGGLPEEKPPSFQERFGLRGASIVEMVVERGISRYIGLDDIRVEIEGRAREEVYREEAARAVEALETHDLVYVHLKGPDEPGHDGSFEGKIRAVEDIDKHFFAPLLDRLSSAGLEPAFVVTSDHATPWDVGAHSGDPVPLMISHQSIQGSIGKFSETVCLRGRLGTIIGGYRIIPKTLSLLAGLEHHHHHH,soluble
3,SLAATGNASKPSLNSFYADGLGQLRNGLFSCFQPVFGYFGTKTTVEIEKSEDELWEIPFDAISELEWLGSGSQGAVFRGQLENRTVAVKKVNQLKETEIKHLRHLRHQNIIEFLGVCSKSPCYCIVMEYCSKGQLCTVLKSRNTITRELFAQWVKEIADGMHYLHQNKVIHRDLKSPNILISAEDSIKICDFGTSHMQKKMDSTMMSFCGTVSWMAPEMIKKQPCNEKVDVYSFGVVLWEMLTRETPYANIAQMAIIFGVGTNILSLPMPEEAPKGLVLLIKQCLSQKGRNRPSFSHIRQHWEIFKPELFEMTEEEWQLAWDSYREFAKCIQYPSTVTRDHGGPKSAFAMEEEIQRKRHEQLNHIKDIRNMYEMKLKRTNKMYDKLQGCFTELKLKESELAEWEKDLTER,soluble
4,MKKALLVVSFGTSYHDTCEKNIVACERDLAASCPDRDLFRAFTSGMIIRKLRQRDGIDIDTPLQALQKLAAQGYQDVAIQSLHIINGDEYEKIVREVQLLRPLFTRLTLGVPLLSSHNDYVQLMQALRQQMPSLRQTEKVVFMGHGASHHAFAAYACLDHMMTAQRFPARVGAVESYPEVDILIDSLRDEGVTGVHLMPLMLVAGDHAINDMASDDGDSWKMRFNAAGIPATPWLSGLGENPAIRAMFVAHLHQALNMAVEEAA,soluble
5,SCTLGRLVSPGPCPRPYLVITEQPKQRGMRFRYECEGRSAGSILGESSTEASKTQPAIELRDCGGLREVEVTACLVWKDWPHRVHPHSLVGKDCTDGVCRVRLRPHVSPRHSFNNLGIQCVRKKEIEAAIERKIQLGIDPYNAGSLKNHQEVDMNVVRICFQASYRDQQGHLHRMDPILSEPVYDKKSTNTSELRICRINKESGPCTGGEELYLLCDKVQKEDISVVFSTASWEGRADFSQADVHRQIAIVFKTPPYEDLEISEPVTVNVFLQRLTDGVCSEPLPFTYLPRDHDSY,soluble
6,MGSDKIHHHHHHMGIRNSKTFTSTDIATYYDVSEDHYMYFWDLNQSHSLHYGYWDASTKTFREALANINRVLAEKASITAGTRVLDAGCGVGGSSIWLAKNKQANVTGITVSKKQAARANTSAAAVNPGGTAVFDVQDYTNTPYHSESFDVVWAIESVCHAANKEDFIKEAYRLLKPGGQLIMADFFIVKDGNADDQRSIDAWGHGWAVPFFEKKDAFQHMLLKAGFNTADMIDSTEHIRRSAKRLYYAFFPGWIISKLYNLVNRRTTEFSKNNVYTAYYQYKTLKKELWKYYIVHAKK,not soluble
7,GSKPVSEKIMEIKLIKGPKGLGFSIAGGVGNQHWPGDNSIYVTKIIEGGAAHKDGKLQIGDKLLAVNNVALEEVTHEEAVTALKNTSDFVYLKVAKPTS,soluble
8,MRMNIRVALPQAQVHWCRGWLQAAHADALMQALLDQVQWEVHRIRMFGRVVDSPRLSSWIGDADASYRYSGTQFAPQPWLEALQPVRTRLQDETGSPFNSVLVNRYRSGADAMGWHSDDEPELGAQPVIASLSLGAARRFAFKHRHDAALKQTLELGHGDLLLMGGDTQRHYKHALPRTVKPVGERINLTFRQIAVRVSQRLEHHHHHH,not soluble
9,MGSDKIHHHHHHMTIVSAFLLPGSPLPQLRPDITPWGRIREGLSRAGKALAESKPDCVLVYSTQWFAVLDQLWITRARSTGVHVDENWHEFGEQAFDIHSDCALAQRCVDACNAAGIKTRGVDYDQFPIDTGTITATTLMGFGSASLPVVIAANNLYHSAEQTEQLGAIASAALQDKRAAVLGIGGLSNSAFRENIDLEKDHILSEADDKWNQRVLALMESGDIEAIRAILPQYSTEARPDMGLKHFYWLLGAMNASFKKATVHEYAPLYGSGGAIVQFDVQ,not soluble
10,LKASGVQAQMAKQQEQDPTNLYISNLPLSMDEQELENMLKPFGQVISTRILRDSSGTSRGVGFARMESTEKCEAVIGHFNGKFIKTPPGVSAPTEPLLCKF,soluble
11,MPGAMHDEPDHPELSITVPTLNEAEGLERFFAMLSAQQGVRFELVIADGGSTDGTPESARRLAAATPFAATVIETGRGRGRQMNAGAAAAAGDTLLFLHADCAFPDPLALRTALDAFTQTVAAGGSHRVAGHFRLRFERTDSAPSLPYYFYEWKARLHRPGCTHGDQGLLLGRRFFAEAGPFDESFPILEDVGLAERIAALGEWLLLPAEIVTSARRFEAEGLRERQTLNALLMNFAAMGWDPFLAELPRLYQSQDRAGRLLLGPVLRLIARLLRPLPRRERGRLWRETGRYVRANAWQIPFFLDVRRHFRQGTPVGEGETPRLDLHDRIFDRLTENGAGHRATALLVWIWFRLSLLREPLTPPAARNPEGNGSLEHHHHHH,soluble
12,MKWMCSICCAAVLLAGGAAQAEAVPNEPINWGFKRSVNHQPPDAGKQLNSLIEKYDAFYLGNTKEKTIYLTFDNGYENGYTPKVLDVLKKHRVTGTFFVTGHFVKDQPQLIKRMSDEGHIIGNHSFHHPDLTTKTADQIQDELDSVNEEVYKITGKQDNLYLRPPRGVFSEYVLKETKRLGYQTVFWSVAFVDWKINNQKGKKYAYDHMIKQAHPGAIYLLHTVSRDNAEALDDAITDLKKQGYTFKSIDDLMFEKEMRLPSL,soluble
13,GPLGSHENCQSPSMKRSRCTNYSFRTLTLSTAEYTKVVEFLAREAKVPRYTWVPTQVVSHILPTEGLERFLTAIKAGHDSVLFNANGIYTMGDMIREFEKHNDIFERIGIDSSKLSKYYEAFLSFYRIQEAMKLPK,soluble
14,MSDQEDKEVPDVEVDYSKYDEDSVPIPEKDIEESHPGRPDLDYDETPVGPAPTECTEEKND,not soluble
15,SNDLSQWSISKDSNLDSPWIEGIPGCGIPGAGSLVEHIDRQILVLQRDGRYIVGLLRSYDQYANLVLENTFERFVLNDSYCDEPLGVFIIRGENVALLGEVDGEKESQWLSHLHTVSLEDTKKTIRGKRQATKALLHSQPERVEWTFYDDAFF,soluble
16,MASKTIIVMSDSHGDRDIVQAIKDKYLGQVDAIFHNGDSELNSSDPIWAGIYVVGGNCDYDTGYPDRLVTQLGTVTIAQTHGHLYHINFTWDKLDYFAQEVVADICLYGHLHRPAAWQVGQTLFMNPGSVTQPRGEINEKLYARVELTDTQIKVDYFTRDHKLYPSLSKEFKR,not soluble
17,MSLTKPFDVTLTREIIKIESVYAKMIENENILYLRVTNFDKNVVDVASKELKKYPNVKGVILDLRNNPGGLLNQAIGLVNLFVDKGVIVSQKGRIASENQEYKADPKNKISNASLVVLVNGGSASASEIVSGALQDLKRGVIVGENTFGKGSVQQIIPINKTEALRLTIARYYLPSGRTIQAVGVKPDIEVFPGKVNTQEDGFSIKESDLKQHLESELEKIDKNKKEDKQENKDNKNLISQKQINDDAQLKSAIDTIKILNIKQGEGHHHHHH,soluble
18,MYLGRHFLAMTSKALFDTKILKVNPLSIIFSPDAHIDGSLPTITDPETEAALVEAARIIRDTDETVAFPTETVYGLGGSALNDNSVLSIYRAKNRPSDNPLITHVSSIDQLNRKVFNQPHLSGTSLFDNIPSIYRPLISSLWPGPLTILLPVPSSEHSALSKLTTADQPTFAVRIPANPVARALIALSDTPIAAPSANASTRPSPTLASHVYHDLKDKIPIILDGGACKVGVESTVVDGLCNPPTLLRPGGFTYEEIVKLGGEAWSLCKVENKKTVEKGEKVRTPGMKYRHYSPSAKVVLLVPHCEGDGILKGVDRMERLKRLIETELKANSNIKKIAILTSLKLRDSDLQSKIFNEPDFSSKTFIIERLGQSGEEIQTNLFAALRKVDENDKVDLIFVEGINEEGEGLAVMNRLRKAAANNCIQF,not soluble
19,MSLSVPLLSRVGADRADRLRTDMEAAAAGWPGAALLRVDSRNRVLVANGRVLLGAAIELADKPPPEAVFLGRVEGGRHVWAVRAALQPIADPDIPAEAVDLRGLGRIMDDTSSQLVSSASALLNWHDNARFSALDGAPTKPARAGWSRVNPITGHEEFPRIDPAVICLVHDGADRAVLARQAAWPERMFSLLAGFVEAGESFEVCVAREIREEIGLTVRDVRYLGSQQWPFPRSLMVGFHALGDPDEEFSFSDGEIAEAAWFTRDEVRAALAAGDWSSASESKLLLPGSISIARVIIESWAACEEGHHHHHH,soluble
20,MGSDKIHHHHHHAATVKLTIIKSDLDMKASGGTGTVEFAATGTVTATVNADWCQVIEVADHKVSISVDANTGYPGRSAQIVLTDGVSTQQATILQEGAIWKYNRDATYFTLTDAAEEVPVEMSSNLPIQVSIPADASQWLSYEMTSDGFKFIAKENLTGKIRSAIVKVTTGIREIEYALLQYDIDDLLGQWTGVVKVVATAFGINQVLSLEENTQIVKNPGGNGYIFQLPMTRLLGATIVLAVTYQDGALVITTPQQQNYALSDGQGGVMYGSIITKTDDGLYLQGKIILSPVLMNDGQVALAYITDAYMSMGLFKGRVPSTANYAGLSIDFPAILMQYAE,not soluble
21,RLIRSVLCSSSAGFGQGFCSPSLRRHLSARFPRGHGNALANFSSCARSRVHAYSSASSATSVGVPVAKMRFIDIGANLLDEMYTGQYNDKPYHPPDLSAVLERAWAAGLEKLMITAGSLKEARAALELAKTDERLYCTVGCHPTRCKEFEDHPGGPEAYLQELLEVLKEGQALGKVVAVGECGLVATDYERLHFCDADTQKKYFEAQFRLAKESGLPMFLHLRAAADDFLDITGRHLGDFPRGGVVHSFDGTAEEAARVLAVPQLAIGINGCSLKTDDNLAVVGGLPLERIMLETDCPWCEIRPTHAGRKHVSAEALAGVTGAKDRKKFMPGCQVKS,not soluble
22,MIEVKPETPDDWWEVEALYDLCFAPGRTALSSYRLRDDVPPVAGLSLVARDSDGTLAGAIRFWPVHVGDLDALLLGPVAVHPTHQGEGLGGFLIQEGLEAGREGGWARVMLVGDAPYYSRFGFARLEGVEMPPPTNPDRVLGLEL,not soluble
23,MHGVDEDDLERQRIEKIKEVQEAVAKLTGAKFQKLENLQRMERMLNKEIELLQNATRKALETHLVTCNYAFYKSIIDEVEEMENATAVLKTFKRDNVSVTVDIVMKEPNVWIKLVNRPAKTVLIEYRDGKRNGDVIAQIKQHLFVSRRFNRPQIRIYFRNGVLAEMAQKLIRHGIVVIGEHVDKSDPSLRGKWNEELIERLGEEEDSDWDEVDEDAASIPTLPSSQSQSESTLPRLNLDISAVMLLVSNMCEPGGVNYQFKEEMINKHVECERLKPAKAEVLEKLKGHHLIMCELAYRRVAEIVKNVGGPTEKKRFEELSKTIERVQDQPSDEIGRVVKLRNIKGITSITKRVFSCAEVTKTTTVTANQKFLTHSRAKHIYFDVIEIPPRPLTEQKEATAKVI,not soluble
